This note sets out measurements from article PMC6177252, “Transcription factors Rv0081 and Rv3334 connect the early and the enduring hypoxic response of Mycobacterium tuberculosis”.

T1: Rv0081 (Mycobacterium tuberculosis H37Rv, UniProt P9WMI7 1-114)
T1 sequence: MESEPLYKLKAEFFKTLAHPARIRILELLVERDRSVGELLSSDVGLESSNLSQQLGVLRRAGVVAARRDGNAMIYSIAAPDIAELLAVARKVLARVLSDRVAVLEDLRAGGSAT

B1: Fragment 5 (-40 to -10) (dsDNA)
DNA 1: GTTAACCTTCTAGTGCACTAGAAGGTCAAG
DNA 2: CTTGACCTTCTAGTGCACTAGAAGGTTAAC
B2: Fragment 6 (-73 to -40) (dsDNA)
DNA 1: CGCCCGCACTGCTGGCGGCTCACATGTACCCAGT
DNA 2: ACTGGGTACATGTGAGCCGCCAGCAGTGCGGGCG
B3: FAM-Fragment 3 (dsDNA)
DNA 1: TGTCGATGGTTGTTCTCATCTGGTAACTCCTTTCCGCAGGCCGCAATTCAGCG
DNA 2: CGCTGAATTGCGGCCTGCGGAAAGGAGTTACCAGATGAGAACAACCATCGACA
B4: FAM-Fragment 1 (dsDNA)
DNA 1: CACATGTACCCAGTGTTAACCTTCTAGTGCACTAGAAGGTCAAGGGGAGTCGC
DNA 2: GCGACTCCCCTTGACCTTCTAGTGCACTAGAAGGTTAACACTGGGTACATGTG
B5: Fragment 4 (-203 to -154) (dsDNA)
DNA 1: GGATGGTCATAGTGGCGTCGGGCGCCAGGCCTGCGCGGGCACACGCGGTGCGG
DNA 2: CCGCACCGCGTGTGCCCGCGCAGGCCTGGCGCCCGACGCCACTATGACCATCC
B6: Fragment b (-54 to -17) (dsDNA)
DNA 1: CACATGTACCCAGTGTTAACCTTCTAGTGCACTAGAAG
DNA 2: CTTCTAGTGCACTAGAAGGTTAACACTGGGTACATGTG
B7: Fragment 3 (-153 to -104) (dsDNA)
DNA 1: B3 DNA 1
DNA 2: B3 DNA 2
B8: Fragment c (-54 to -9) (dsDNA)
DNA 1: CACATGTACCCAGTGTTAACCTTCTAGTGCACTAGAAGGTCAAGGG
DNA 2: CCCTTGACCTTCTAGTGCACTAGAAGGTTAACACTGGGTACATGTG
B9: Fragment 2 (-103 to -54) (dsDNA)
DNA 1: GTATGGGCTCACCGAGATCAGGCTCGTCACGATCGCCCGCACTGCTGGCGGCT
DNA 2: AGCCGCCAGCAGTGCGGGCGATCGTGACGAGCCTGATCTCGGTGAGCCCATAC
B10: Fragment a (-54 to -25) (dsDNA)
DNA 1: CACATGTACCCAGTGTTAACCTTCTAGTGC
DNA 2: GCACTAGAAGGTTAACACTGGGTACATGTG
B11: Fragment 1 (-53 to 0) (dsDNA)
DNA 1: B4 DNA 1
DNA 2: B4 DNA 2

The first series addresses T1, Rv0081. Kind of series: EMSA; 288-576 ng Rv0081. As to conditions: protein: recombinant; tags: His-tag (pET28b); chain copies: 2; blunt. For orientation: Mobility shift assays separate free from complexed probe on a gel.
On to B1, for which the binding result was “no binding”.

Consider B2, for which the binding result was “no binding”.

A further series deals with T1, Rv0081. As to the kind of experiment: EMSA. As to conditions: protein: recombinant; tags: His-tag (pET28b); chain copies: 2; label: FAM; blunt.
For B3, the binding result was “binds”.

Take B4: the binding result is given as “binds”.

The target in a further series is T1, Rv0081. Kind of series: EMSA; 576 ng Rv0081. As to conditions: protein: recombinant; tags: His-tag (pET28b); chain copies: 2; blunt.
Take B5: the binding result is given as “no binding”.

As for B6, the binding result is given as “no binding”.

Take B7: the binding result was “binds”.

Regarding B8, the binding result is on record as “no binding”.

Turning to B9, the binding result was “no binding”.

B10: the binding result is recorded as “no binding”.

As to B11, the binding result is reported as “binds”.
